From patent US20170137467A1 (CHROMOTEK, published 2017)

Columns and labels:
[1] = target: T1, BC2T P1T (human); assay: library pulldown, LC-MS of supernatant; ratio vs GFP-Nb control (0=captured, 1=not captured)
T1 construct: position 1 library, row T
T1 peptide: Ac-TDRKAAVSHWQQ-NH2
Procedure, shortened: (§1)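 Unbound peptide left in supernatant after 1 h pulldown in PBS/0.01% CHAPS measured by reversed-phase LC-MS (8–30% eluent B gradient, 20 min).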

[2] = target: T2, BC2T R3W (human); assay: as above
T2 construct: position 3 library (BC2TR3X), row W
T2 peptide: Ac-PDWKAAVSHWQQ-NH2
Procedure, shortened: as §1

[3] = target: T3, BC2T A6E (human); assay: as above
T3 construct: position 6 library (BC2TA6X), row E
T3 peptide: Ac-PDRKAEVSHWQQ-NH2
Procedure, shortened: as §1

[4] = target: T4, BC2T V7T (human); assay: as above
T4 construct: position 7 library, row T
T4 peptide: Ac-PDRKAATSHWQQ-NH2
Procedure, shortened: as §1

[5] = target: T5, BC2T A6Q (human); assay: as above
T5 construct: position 6 library (BC2TA6X), row Q
T5 peptide: Ac-PDRKAQVSHWQQ-NH2
Procedure, shortened: as §1

[6] = target: T6, BC2T D2F (human); assay: as above
T6 construct: position 2 library, row F
T6 peptide: Ac-PFRKAAVSHWQQ-NH2
Procedure, shortened: as §1

[7] = target: T7, BC2T V7Q (human); assay: as above
T7 construct: position 7 library, row Q
T7 peptide: Ac-PDRKAAQSHWQQ-NH2
Procedure, shortened: as §1

[8] = target: T8, BC2T R3P (human); assay: as above
T8 construct: position 3 library (BC2TR3X), row P
T8 peptide: Ac-PDPKAAVSHWQQ-NH2
Procedure, shortened: as §1

[9] = target: T9, BC2T R3D (human); assay: as above
T9 construct: position 3 library (BC2TR3X), row D
T9 peptide: Ac-PDDKAAVSHWQQ-NH2
Procedure, shortened: as §1

[10] = target: T10, BC2T V7K (human); assay: as above
T10 construct: position 7 library, row K
T10 peptide: Ac-PDRKAAKSHWQQ-NH2
Procedure, shortened: as §1

[11] = target: T11, BC2T V7D (human); assay: as above
T11 construct: position 7 library, row D
T11 peptide: Ac-PDRKAADSHWQQ-NH2
Procedure, shortened: as §1

[12] = target: T12, BC2T A5E (human); assay: as above
T12 construct: position 5 library, row E
T12 peptide: Ac-PDRKEAVSHWQQ-NH2
Procedure, shortened: as §1

[13] = target: T13, BC2T P1R (human); assay: as above
T13 construct: position 1 library, row R
T13 peptide: Ac-RDRKAAVSHWQQ-NH2
Procedure, shortened: as §1

[14] = target: T14, BC2T A6K (human); assay: as above
T14 construct: position 6 library (BC2TA6X), row K
T14 peptide: Ac-PDRKAKVSHWQQ-NH2
Procedure, shortened: as §1

[15] = target: T15, BC2T R3T (human); assay: as above
T15 construct: position 3 library (BC2TR3X), row T
T15 peptide: Ac-PDTKAAVSHWQQ-NH2
Procedure, shortened: as §1

[16] = target: T16, BC2T K4C(Abu) (human, not fully specified (residue 4)); assay: as above
T16 construct: position 4 library, row C(Abu) / C*
T16 peptide: Ac-PDRCAAVSHWQQ-NH2
Procedure, shortened: as §1

[17] = target: T17, BC2T A6W (human); assay: as above
T17 construct: position 6 library (BC2TA6X), row W
T17 peptide: Ac-PDRKAWVSHWQQ-NH2
Procedure, shortened: as §1

[18] = target: T18, BC2T D2T (human); assay: as above
T18 construct: position 2 library, row T
T18 peptide: Ac-PTRKAAVSHWQQ-NH2
Procedure, shortened: as §1

[19] = target: T19, BC2T A6F; assay: positional peptide library pulldown on immobilised Nb, LC-MS of supernatant; signal ratio to control GFP-Nb (1 = not captured, near 0 = captured)
T19 construct: positional scanning library member
T19 peptide: Ac-PDRKAFVSHWQQ-NH2
Procedure, shortened: as §1

[20] = target: T20, BC2T R3K; assay: as above
T20 construct: positional scanning library member
T20 peptide: Ac-PDKKAAVSHWQQ-NH2
Procedure, shortened: as §1

[21] = target: T21, BC2T R3N; assay: as above
T21 construct: positional scanning library member
T21 peptide: Ac-PDNKAAVSHWQQ-NH2
Procedure, shortened: as §1

[22] = target: T22, BC2T A6T; assay: as above
T22 construct: positional scanning library member
T22 peptide: Ac-PDRKATVSHWQQ-NH2
Procedure, shortened: as §1

B1: BC2 nanobody (BC2-Nb) (VHH)
VHH: QVQLVESGGGLVQPGGSLTLSCTASGFTLDHYDIGWFRQAPGKEREGVSCINNSDDDTYYADSVKGRFTIFMDNAKDTVYLQMNSLKPEDTAIYYCAEARGCKRGRYEYDFWGQGTQVTVSS
notes: immobilised on agarose/sepharose beads in this assay; also called BC2 nanotrap (immobilised form); not shown: C-terminal 6xHis-tag added by pHEN6 vector
B1 gave a ratio [1] of 0.5, a ratio [2] of 0.8 and a ratio [3] of 1.1. The ratio [4] was 0.2, the ratio [5] was 1 and the ratio [6] was 0.2. It also gave a ratio [7] of 0.4, a ratio [8] of 0.8 and a ratio [9] of 1. It also gave a ratio [10] of 0.3, a ratio [11] of 0.5 and a ratio [12] of 0.2. For the same binder, the ratio [13] was 0.2, the ratio [14] was 1 and the ratio [15] was 0.3. The ratio [16] was 0.1, the ratio [17] was 1.1 and the ratio [18] was 0.1.

B2: BC2-NbR106E (VHH)
VHH: QVQLVESGGGLVQPGGSLTLSCTASGFTLDHYDIGWFRQAPGKEREGVSCINNSDDDTYYADSVKGRFTIFMDNAKDTVYLQMNSLKPEDTAIYYCAEARGCKRGEYEYDFWGQGTQVTVSS
notes: headlock mutant of BC2-Nb; immobilised on beads in this assay
In the case of B2, the ratio [19] is reported as 1, the ratio [20] is reported as 0.3 and the ratio [21] is reported as 0.9. The ratio [22] was 0.3.

B3: BC2-NbR106S (VHH)
VHH: QVQLVESGGGLVQPGGSLTLSCTASGFTLDHYDIGWFRQAPGKEREGVSCINNSDDDTYYADSVKGRFTIFMDNAKDTVYLQMNSLKPEDTAIYYCAEARGCKRGSYEYDFWGQGTQVTVSS
notes: immobilised on beads in this assay; not shown: C-terminal 6xHis-tag added by pHEN6 vector
B3 showed a ratio [1] of 0.7, a ratio [2] of 1 and a ratio [3] of 1. For the same binder, the ratio [4] was 0.3, the ratio [5] was 0.9 and the ratio [6] was 0.3. For the same binder, the ratio [7] was 0.5, the ratio [8] was 1 and the ratio [9] was 1. For the same binder, the ratio [10] was 0.3, the ratio [11] was 0.9 and the ratio [12] was 0.7. It also gave a ratio [13] of 0.4, a ratio [14] of 0.8 and a ratio [15] of 0.8. The ratio [16] was 0.3, the ratio [17] was 1 and the ratio [18] was 0.2.
